Measurements from paper PMC2704292.

Target: actin of the thin filaments of rabbit psoas myofibrils (rabbit (endogenous in psoas myofibrils)) (UniProt P68135)
Assay: co-sedimentation

rabbit fast skeletal tropomyosin (from UniProt P58772 1-284; P58776 1-284) (natural protein)
average level of replacement of Tm in reconstituted myofibrils: 96%
